Laboratory results taken from PMC8360651.

Test system: VHH 9E (humanized single-domain antibody) (synthetic humanized VHH library NaLi-H1)
Experiment: ELISA
Settings: ELISA: biotinylated DNA on avidin plates, 2 h binding, PBS/PBST washes (competition mix at RT). EMSA: PBS, 10% glycerol, RT 2 h, 8% native PAGE in TAE at 4 C. …

Sequence “AAAATACATTTATATATATCCTAGTCCGACCGCAGGATCCTATAA / TTATAGGATCCTGCGGTCGGACTAGGATATATATAAATGTA [41-mer dsDNA target (BIOTIN-R-CELL + O3-CELL)]” has a binding signal (pH 5) of 82% and a K half (serial dilutions of VHH on immobilized dsDNA, relative binding affinity) of 200 nM.
